Patent US20250346644A1 (LATTICON SUZHOU BIOPHARMACEUTICALS, published 2025)

T1: hIL2Rα/β/γ complex (human, UniProt P01589 22-213; P14784 27-239; P31785 23-254)
T1 construct: assembled in the BLI assay from bought subunits; also called hIL2Rα/o/γ complex
T1 sequence (looked up) 1: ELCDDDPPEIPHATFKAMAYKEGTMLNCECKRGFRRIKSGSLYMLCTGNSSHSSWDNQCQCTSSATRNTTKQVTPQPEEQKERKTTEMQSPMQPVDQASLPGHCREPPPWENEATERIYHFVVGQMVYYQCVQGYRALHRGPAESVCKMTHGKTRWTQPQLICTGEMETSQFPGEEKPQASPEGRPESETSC
T1 sequence (looked up) 2: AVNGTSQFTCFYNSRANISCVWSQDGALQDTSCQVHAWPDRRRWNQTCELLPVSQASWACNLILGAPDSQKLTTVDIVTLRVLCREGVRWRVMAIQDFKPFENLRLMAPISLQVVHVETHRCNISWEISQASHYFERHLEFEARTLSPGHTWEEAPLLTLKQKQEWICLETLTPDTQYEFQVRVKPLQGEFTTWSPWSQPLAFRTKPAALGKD
T1 sequence (looked up) 3: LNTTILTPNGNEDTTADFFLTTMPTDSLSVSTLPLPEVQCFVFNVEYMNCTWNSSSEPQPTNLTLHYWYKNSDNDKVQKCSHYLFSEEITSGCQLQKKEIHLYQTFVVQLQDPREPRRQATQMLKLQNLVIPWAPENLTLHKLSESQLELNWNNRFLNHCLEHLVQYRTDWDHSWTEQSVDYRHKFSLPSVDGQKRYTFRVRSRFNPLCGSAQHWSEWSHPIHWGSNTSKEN

T2: hIL2Rα (hCD25) (human, UniProt P01589 22-213, limits assumed)
T2 construct: bought recombinant protein; also called hCD25 (Acro); biotin-CD25 (Acro)
T2 sequence (looked up): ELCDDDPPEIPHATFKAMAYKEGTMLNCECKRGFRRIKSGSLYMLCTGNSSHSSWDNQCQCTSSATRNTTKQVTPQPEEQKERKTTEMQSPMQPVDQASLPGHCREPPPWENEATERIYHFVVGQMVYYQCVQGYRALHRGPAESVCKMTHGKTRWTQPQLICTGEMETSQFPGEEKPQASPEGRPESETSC

T3: high-affinity IL2R expressed on the surface of CTLL-2 cells
T3 sequence (P01590 whole entry, species assumed, looked up): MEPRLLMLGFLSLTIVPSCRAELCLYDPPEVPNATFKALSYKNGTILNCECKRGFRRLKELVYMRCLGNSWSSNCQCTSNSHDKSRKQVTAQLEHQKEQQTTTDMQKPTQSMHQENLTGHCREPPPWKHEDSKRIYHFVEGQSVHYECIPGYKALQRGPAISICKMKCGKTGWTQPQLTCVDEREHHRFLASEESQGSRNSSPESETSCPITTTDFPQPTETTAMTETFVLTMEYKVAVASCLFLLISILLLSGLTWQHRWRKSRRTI
T3 sequence (P16297 whole entry, species assumed, looked up): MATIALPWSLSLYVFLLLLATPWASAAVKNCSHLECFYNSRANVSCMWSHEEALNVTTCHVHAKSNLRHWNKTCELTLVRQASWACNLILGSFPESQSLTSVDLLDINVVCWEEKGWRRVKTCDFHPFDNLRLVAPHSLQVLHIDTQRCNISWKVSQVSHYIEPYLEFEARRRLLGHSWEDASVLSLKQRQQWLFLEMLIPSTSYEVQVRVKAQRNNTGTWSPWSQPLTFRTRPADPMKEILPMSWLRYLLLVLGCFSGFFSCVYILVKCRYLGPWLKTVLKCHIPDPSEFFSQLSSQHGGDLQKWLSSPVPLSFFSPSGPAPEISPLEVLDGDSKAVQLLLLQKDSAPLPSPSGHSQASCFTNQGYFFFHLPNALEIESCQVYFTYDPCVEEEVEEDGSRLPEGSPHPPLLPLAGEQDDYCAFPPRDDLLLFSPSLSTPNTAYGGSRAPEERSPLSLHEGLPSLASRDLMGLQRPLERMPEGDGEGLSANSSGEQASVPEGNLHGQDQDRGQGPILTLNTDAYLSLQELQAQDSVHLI
T3 sequence (P34902 whole entry, species assumed, looked up): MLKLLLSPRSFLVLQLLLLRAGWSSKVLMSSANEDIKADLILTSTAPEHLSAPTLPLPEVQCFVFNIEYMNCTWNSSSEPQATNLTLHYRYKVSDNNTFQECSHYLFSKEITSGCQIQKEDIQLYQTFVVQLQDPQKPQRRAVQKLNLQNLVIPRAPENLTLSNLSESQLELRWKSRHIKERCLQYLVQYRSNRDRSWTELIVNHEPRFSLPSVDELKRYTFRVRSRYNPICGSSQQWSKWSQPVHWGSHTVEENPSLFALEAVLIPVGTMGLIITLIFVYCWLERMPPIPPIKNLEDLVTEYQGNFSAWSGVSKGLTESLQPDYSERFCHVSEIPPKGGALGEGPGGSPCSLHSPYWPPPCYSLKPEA

T4: hIL2Rα/β complex (human, UniProt P01589 22-213; P14784 27-239)
T4 construct: assembled in the BLI assay from bought subunits; also called hIL2Rα/O complex
T4 sequence (looked up) 1: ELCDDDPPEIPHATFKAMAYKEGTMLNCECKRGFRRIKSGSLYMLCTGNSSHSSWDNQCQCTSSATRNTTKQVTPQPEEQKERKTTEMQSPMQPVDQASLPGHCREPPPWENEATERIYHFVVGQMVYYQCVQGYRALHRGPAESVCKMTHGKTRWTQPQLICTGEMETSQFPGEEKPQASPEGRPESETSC
T4 sequence (looked up) 2: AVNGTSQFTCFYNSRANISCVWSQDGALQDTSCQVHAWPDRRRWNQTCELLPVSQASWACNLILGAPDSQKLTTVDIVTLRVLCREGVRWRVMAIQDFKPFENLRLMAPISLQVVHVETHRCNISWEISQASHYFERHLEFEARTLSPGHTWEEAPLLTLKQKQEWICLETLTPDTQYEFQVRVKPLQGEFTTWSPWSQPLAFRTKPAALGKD

T5: hIL2Rβ (hCD122) (human, UniProt P14784 27-239, limits assumed)
T5 construct: bought recombinant protein; also called hCD122 (Acro)
T5 sequence (looked up): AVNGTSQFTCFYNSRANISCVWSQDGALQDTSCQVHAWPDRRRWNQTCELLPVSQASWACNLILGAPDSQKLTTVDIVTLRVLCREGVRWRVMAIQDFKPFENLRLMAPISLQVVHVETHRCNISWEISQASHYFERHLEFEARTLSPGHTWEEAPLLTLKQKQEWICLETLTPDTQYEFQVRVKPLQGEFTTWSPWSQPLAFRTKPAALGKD


Assays:
hIL2Rα/β/γ complex = molecular target: T1, hIL2Rα/β/γ complex; assay: BLI (ForteBio): biotin-CD25 on an SA sensor, CD122 step, then sample (100 nM by the text) together with CD132
Method: (§1) The specific method was described as follows: biotin-CD25 (Acro) was diluted in 1×PBS to 5 μg/mL and added to a 96-well black-wall plate at 200 μL per well; hIL2Rβ (Acro) was diluted to 5 μg/mL in 1×PBS and also added to the 96-well black-wall plate at 200 μL per well. […] The 96-well black-wall plate containing the testing samples and a SA sensor was uploaded onto the analyzer, and a program was inputted. The SA sensor was firstly immersed into the well with biotin-CD25 (Acro) and then with hIL2Rβ (Acro) till saturation. After that, the sensor was immersed in the testing sample well and the binding signal was recorded in real-time. At the end of each association-dissociation cycle, the sensor was regenerated by immersing in 500 mM phosphate buffer and then started with the next cycle of detection.

hIL2Rα (hCD25) [1] = molecular target: T2, hIL2Rα (hCD25); assay: BLI (ForteBio): biotin-CD25 on an SA sensor, buffer step, then sample (100 nM by the text)
[2] = molecular target: T3, high-affinity IL2R expressed on the …; assay: cell-based or functional assay
hIL2Rα/β complex = molecular target: T4, hIL2Rα/β complex; assay: BLI (ForteBio): biotin-CD25 on an SA sensor, CD122 step, then sample (100 nM by the text) together with CD122
Method: as §1

hIL2Rβ (hCD122) = molecular target: T5, hIL2Rβ (hCD122); assay: ELISA (method of section 4.2.1): sample captured on coated goat anti-human IgG, hCD122 titrated; the x axis is the CD122 concentration
hIL2Rα (hCD25) [3] = molecular target: T2, hIL2Rα (hCD25); assay: ELISA (method of section 4.2.1): sample captured on coated goat anti-human IgG, hCD25 titrated; the x axis is the CD25 concentration

binding result (hIL2Rα/β/γ complex) | binding result (hIL2Rα (hCD25) [1]) | Activity in Promoting CTLL-2 Cell Proliferation (EC50, nM) [2] | binding result (hIL2Rα/β complex) | binding result (hIL2Rβ (hCD122)) | binding result (hIL2Rα (hCD25) [3]) | Binder
binds | binds | 0.156 nM | binds |  |  | hIL2-DM (Δ3, C125L) (ligand, first three N-terminal residues (APT) deleted; also called hIL2-DM (Δ3, 125L); hIL2-DM (Δ3, C125L) mutein) SSSTKKTQLQLEHLLLDLQMILNGINNYKNPKLTRMLTFKFYMPKKATELKHLQCLEEELGPLEEVLNLAQSKNFHLRPRDLISNIRVIVLELKGSETTFMCEYADETATIVEFLNRWITFLQSIISTLT
 |  | 5.77 nM |  | binds | no binding (tested: 10 µg/mL) | K2G11-Cy06 (other, hIL2-DM (Δ3, C125L) fused to the heavy chain of K2G11, disulfide IL:102-L:68) heavy: SSSTKKTQLQLEHLLLDLQMILNGINNYKNPKLTRMLTFKFYMPKKATELKHLQCLEEELGPLEEVLNLAQSKNFHLRPRDLISNIRVIVLELKGSETCFMCEYADETATIVEFLNRWITFLQSIISTLTGGGGSGGGGSGGGGSGGGGSQVQLVQSGAEVKKPGATVKISCKVSGDTITAYYMHWVRQAPGQGLEWIGRIDPDDDSTKYAENFKGRVTITADTSTDTAYMELSSLRSEDTAVYYCTTITFLYSRELRWFAYWGQGTLVTVSS VL: DIVLTQSPATLSLSPGERATLSCQASQYISNYLSWYQQKPGQAPRLLIYSATSLASGIPARFSGSRSCTDFTLTISSLEPEDFAVYYCLQHYSTPYTFGQGTKLEIK
